Assays:
(GR)15: H-C(GR)15-OH [1] = target: T1, (GR)15: H-C(GR)15-OH; experiment: indirect ELISA, coated peptide
T1 construct: synthetic, not coupled to BSA; also called poly-GR DPR protein peptide
T1 peptide: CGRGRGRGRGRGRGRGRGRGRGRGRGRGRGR
Experimental: (§1) In brief, dipeptide repeat proteins were synthesized and purified by Schafer-N(Copenhagen, Denmark): (GA)₁₅: H-CHHHHHH(GA)₁₅-OH; (GP)₁₅: H-C(GP)₁₅-OH; (GR)₁₅: H-C(GR)₁₅-OH; (PA)₁₅: H-C(PA)₁₅-OH; (PR)₁₅: H—C(PR)₁₅-OH. 96-well microplates (Corning Incorporated, Corning, USA) were coated with dipeptide repeat protein peptides at a concentration of either 5 μg/ml or 20 μg/ml in coating buffer (15 mM Na₂CO₃, 35 mM NaHCO₃, pH 9.42). Non-specific binding sites were blocked for 1 h at room temperature with PBS/0.1% Tween®-20 containing 2% BSA (Sigma-Aldrich, Buchs, Switzerland). Primary antibodies were diluted to the indicated concentrations and incubated for 1 h at room temperature, followed by incubation with a donkey anti-human IgG Fcγ-specific antibody conjugated with HRP (Jackson ImmunoResearch Laboratories, Inc., West Grove, USA). Binding was determined by measurement of HRP activity in a standard colorimetric assay. EC₅₀ values were estimated by non-linear regression using GraphPad Prism software (San Diego, USA). The binding specificity and EC₅₀ of human-derived antibodies for C9orf72 dipeptide repeat protein peptides (GA)₁₅, (GP)₁₅, (GR)₁₅, (PA)₁₅ and (PR)₁₅ were determined by indirect ELISA.

(GP)15: H-C(GP)15-OH [2] = target: T2, (GP)15: H-C(GP)15-OH; experiment: indirect ELISA, coated peptide
T2 construct: synthetic, not coupled to BSA; also called poly-GP DPR protein peptide
T2 peptide: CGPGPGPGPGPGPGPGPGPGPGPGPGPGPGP
Experimental: as §1

(PR)15: H-C(PR)15-OH [3] = target: T3, (PR)15: H-C(PR)15-OH; experiment: indirect ELISA, uncoupled peptide coated, antibody titrated [also D00016 FIG. 3M]
T3 construct: synthetic, not coupled to BSA; also called poly-PR DPR protein peptide
T3 peptide: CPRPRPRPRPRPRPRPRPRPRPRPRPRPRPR
Experimental: as §1, with “(PR)₁₅: H—C(PR)₁₅-OH. DPR protein peptides were then conjugated via a bifunctional linker (SMCC) to bovine serum albumin (BSA). 96-well microplates” for “(PR)₁₅: H—C(PR)₁₅-OH. 96-well microplates”, “coated with BSA-coupled or -uncoupled dipeptide repeat” for “coated with dipeptide repeat”, “and incubated 1 h” for “and incubated for 1 h”, “Diego, USA).” for “Diego, USA). The binding specificity and EC₅₀ of human-derived antibodies for C9orf72 dipeptide repeat protein peptides (GA)₁₅, (GP)₁₅, (GR)₁₅, (PA)₁₅ and (PR)₁₅ were determined by indirect ELISA.”

[4] = target: T4, BSA-coupled (PR)15 DPR protein peptide (bovine, conjugated via a bifunctional linker (SMCC) to bovine serum albumin); experiment: indirect ELISA, BSA-coupled peptide coated, antibody titrated [also D00016 FIG. 3M]
T4 construct: also called BSA-(PR)15
T4 sequence (P02769 25-607 limits assumed): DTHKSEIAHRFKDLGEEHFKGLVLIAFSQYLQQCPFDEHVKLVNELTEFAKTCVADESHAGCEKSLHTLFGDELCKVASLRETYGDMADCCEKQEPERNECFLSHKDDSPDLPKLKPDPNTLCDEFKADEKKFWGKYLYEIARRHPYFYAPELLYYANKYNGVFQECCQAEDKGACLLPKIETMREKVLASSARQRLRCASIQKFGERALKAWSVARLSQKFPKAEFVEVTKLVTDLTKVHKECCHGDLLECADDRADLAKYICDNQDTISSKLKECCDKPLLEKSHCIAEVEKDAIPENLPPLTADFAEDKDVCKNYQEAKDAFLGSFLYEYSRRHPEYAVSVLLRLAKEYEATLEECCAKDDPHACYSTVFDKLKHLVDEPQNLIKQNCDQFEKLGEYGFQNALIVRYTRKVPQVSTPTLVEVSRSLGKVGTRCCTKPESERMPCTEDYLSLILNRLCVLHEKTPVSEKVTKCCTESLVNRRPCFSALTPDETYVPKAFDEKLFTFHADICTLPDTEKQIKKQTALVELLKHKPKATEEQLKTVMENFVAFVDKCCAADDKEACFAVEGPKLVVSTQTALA
Experimental: as §1, with “(PR)₁₅: H—C(PR)₁₅-OH. DPR protein peptides were then conjugated via a bifunctional linker (SMCC) to bovine serum albumin (BSA). 96-well microplates” for “(PR)₁₅: H—C(PR)₁₅-OH. 96-well microplates”, “coated with BSA-coupled or -uncoupled dipeptide repeat” for “coated with dipeptide repeat”, “and incubated 1 h” for “and incubated for 1 h”, “Diego, USA).” for “Diego, USA). The binding specificity and EC₅₀ of human-derived antibodies for C9orf72 dipeptide repeat protein peptides (GA)₁₅, (GP)₁₅, (GR)₁₅, (PA)₁₅ and (PR)₁₅ were determined by indirect ELISA.”

(PA)15: H-C(PA)15-OH [5] = target: T5, (PA)15: H-C(PA)15-OH; experiment: indirect ELISA, uncoupled peptide coated, antibody titrated [also D00011 FIG. 2M]
T5 construct: synthetic, not coupled to BSA; also called poly-PA DPR protein peptide
T5 peptide: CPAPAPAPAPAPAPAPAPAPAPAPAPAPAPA
Experimental: as §1

[6] = target: T6, (GA)15: H-CHHHHHH(GA)15-OH; experiment: as above
T6 construct: synthetic, not coupled to BSA; also called poly-GA DPR protein peptide
T6 peptide: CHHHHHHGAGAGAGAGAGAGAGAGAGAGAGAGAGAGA
Experimental: as §1

[7] = target: T7, BSA-coupled (GP)15 DPR protein peptide (bovine, conjugated via a bifunctional linker (SMCC) to bovine serum albumin); experiment: Western blot of BSA-coupled peptides
T7 construct: also called BSA-(GP)15
T7 sequence (P02769 25-607 limits assumed): as the sequence (P02769 25-607 limits assumed) above
Experimental: (§2) Resolved proteins were then electroblotted (Novex® Semi-Dry Blotter, 1 h, 25V) on methanol-activated PVDF membranes (Immobilon®-P Transfer Membrane, Merck & Cie, Schaffhausen, Switzerland) by the use of Novex® NuPAGE® transfer buffer 2× (Life Technologies Europe B.V., Zug, Switzerland). Non-specific binding sites were blocked overnight at 4° C. (or alternatively for 1 h at room temperature) with PBS/0.1% Tween®-20 containing 2% BSA (Sigma-Aldrich, Buchs, Switzerland) (PBST). […] Membranes were washed three times in PBST for 15 min at RT and then incubated with a donkey anti-human IgG Fcγ-specific antibody conjugated with HRP (1:20000 or 1:10000 dilution, Jackson ImmunoResearch Laboratories, Inc., West Grove, USA) for 1 h at room temperature. Antibody binding was determined by membrane development using ECL and ImageQuant 350 detection (GE Healthcare, Otelfingen, Switzerland).
(§3) The binding specificity of the human-derived antibodies to BSA-coupled C9orf72 dipeptide repeat proteins (GA)₁₅, (GP)₁₅, (GR)₁₅, (PA)₁₅ and (PR)₁₅ was determined by Western blot analysis.

[8] = target: T8, BSA-coupled (PA)15 DPR protein peptide (bovine, UniProt P02769 25-607, conjugated via a bifunctional linker (SMCC) to bovine serum albumin); experiment: Western blot of BSA-coupled peptides
T8 construct: also called BSA-(PA)15
T8 sequence (P02769 25-607 limits assumed): as the sequence (P02769 25-607 limits assumed) above
Experimental: as §2, §3

[9] = target: T9, BSA-coupled (GR)15 DPR protein peptide (bovine, UniProt P02769 25-607, conjugated via a bifunctional linker (SMCC) to bovine serum albumin); experiment: Western blot of BSA-coupled peptides
T9 construct: also called BSA-(GR)15
T9 sequence (P02769 25-607 limits assumed): as the sequence (P02769 25-607 limits assumed) above
Experimental: as §2, §3

(GR)15: H-C(GR)15-OH [10] = target: T1, (GR)15: H-C(GR)15-OH; experiment: indirect ELISA, coated uncoupled peptide
Experimental: as §1

(PA)15: H-C(PA)15-OH [11] = target: T5, (PA)15: H-C(PA)15-OH; experiment: indirect ELISA, coated peptide
Experimental: as §1

(GR)15: H-C(GR)15-OH [12] = target: T1, (GR)15: H-C(GR)15-OH; experiment: indirect ELISA, uncoupled peptide coated, antibody titrated [also D00015 FIG. 3J]
Experimental: as §1, with “(PR)₁₅: H—C(PR)₁₅-OH. DPR protein peptides were then conjugated via a bifunctional linker (SMCC) to bovine serum albumin (BSA). 96-well microplates” for “(PR)₁₅: H—C(PR)₁₅-OH. 96-well microplates”, “coated with BSA-coupled or -uncoupled dipeptide repeat” for “coated with dipeptide repeat”, “and incubated 1 h” for “and incubated for 1 h”, “Diego, USA).” for “Diego, USA). The binding specificity and EC₅₀ of human-derived antibodies for C9orf72 dipeptide repeat protein peptides (GA)₁₅, (GP)₁₅, (GR)₁₅, (PA)₁₅ and (PR)₁₅ were determined by indirect ELISA.”

[13] = target: T7, BSA-coupled (GP)15 DPR protein peptide; experiment: Western blot, BSA-coupled peptide
Experimental: as §2, §3

[14] = target: T8, BSA-coupled (PA)15 DPR protein peptide; experiment: Western blot, BSA-coupled peptide
Experimental: as §2, §3

transthyrethin = transthyrethin (UniProt P02766 21-147); experiment: indirect ELISA, coated protein
Experimental: (§4) 96-well microplates (Corning) were coated with different target proteins at a concentration of 1-10 μg/ml in coating buffer (15 mM Na₂CO₃, 35 mM NaHCO₃, pH 9.42). Non-specific binding sites were blocked for 1 h at RT with PBS/0.1% Tween®-20 containing 2% BSA (Sigma-Aldrich, Buchs, Switzerland). […] Binding was determined using donkey anti-human IgG Fcγ-specific antibody conjugated with HRP (Jackson ImmunoResearch Laboratories, Inc., West Grove, USA) followed by measurement of HRP activity in a standard colorimetric assay. Signals for target protein were calculated in fold increase above median.

Tau = Tau (UniProt P10636-8 1-441, limits assumed); experiment: indirect ELISA, coated protein
Sequence of Tau (P10636 other isoform, or with tags, fused parts or gaps limits assumed): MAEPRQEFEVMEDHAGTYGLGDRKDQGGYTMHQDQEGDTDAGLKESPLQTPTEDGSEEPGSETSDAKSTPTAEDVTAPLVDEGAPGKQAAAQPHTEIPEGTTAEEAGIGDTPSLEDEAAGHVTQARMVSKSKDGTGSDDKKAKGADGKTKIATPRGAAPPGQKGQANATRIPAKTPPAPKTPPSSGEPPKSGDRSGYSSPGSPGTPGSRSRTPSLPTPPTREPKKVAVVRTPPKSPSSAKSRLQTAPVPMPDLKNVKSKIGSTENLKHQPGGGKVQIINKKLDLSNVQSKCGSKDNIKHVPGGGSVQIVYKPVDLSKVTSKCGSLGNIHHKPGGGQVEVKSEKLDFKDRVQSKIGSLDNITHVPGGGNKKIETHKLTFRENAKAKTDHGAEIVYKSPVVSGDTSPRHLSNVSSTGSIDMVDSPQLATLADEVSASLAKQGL
Experimental: as §4

[15] = target: T10, transactive response DNA binding protein 43 (UniProt Q13148 1-414, limits assumed); experiment: indirect ELISA, coated protein
T10 construct: also called TDP-43
T10 sequence (Q13148 whole entry): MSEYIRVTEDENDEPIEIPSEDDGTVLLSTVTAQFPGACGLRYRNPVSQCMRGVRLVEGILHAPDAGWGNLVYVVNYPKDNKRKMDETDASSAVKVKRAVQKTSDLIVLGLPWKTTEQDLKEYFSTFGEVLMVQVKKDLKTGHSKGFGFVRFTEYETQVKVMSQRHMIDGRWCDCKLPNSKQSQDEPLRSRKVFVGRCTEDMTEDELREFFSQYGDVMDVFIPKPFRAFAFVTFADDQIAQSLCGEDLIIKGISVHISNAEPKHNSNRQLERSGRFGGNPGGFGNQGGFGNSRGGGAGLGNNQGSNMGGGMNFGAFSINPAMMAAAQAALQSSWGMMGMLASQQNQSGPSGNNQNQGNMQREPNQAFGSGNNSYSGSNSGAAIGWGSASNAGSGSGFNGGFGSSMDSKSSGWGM
Experimental: as §4

[16] = target: T11, full-length amyloid precursor protein (UniProt P05067 18-770, limits assumed); experiment: indirect ELISA, coated protein
T11 construct: also called flAPP
T11 sequence (P05067 18-770 limits assumed): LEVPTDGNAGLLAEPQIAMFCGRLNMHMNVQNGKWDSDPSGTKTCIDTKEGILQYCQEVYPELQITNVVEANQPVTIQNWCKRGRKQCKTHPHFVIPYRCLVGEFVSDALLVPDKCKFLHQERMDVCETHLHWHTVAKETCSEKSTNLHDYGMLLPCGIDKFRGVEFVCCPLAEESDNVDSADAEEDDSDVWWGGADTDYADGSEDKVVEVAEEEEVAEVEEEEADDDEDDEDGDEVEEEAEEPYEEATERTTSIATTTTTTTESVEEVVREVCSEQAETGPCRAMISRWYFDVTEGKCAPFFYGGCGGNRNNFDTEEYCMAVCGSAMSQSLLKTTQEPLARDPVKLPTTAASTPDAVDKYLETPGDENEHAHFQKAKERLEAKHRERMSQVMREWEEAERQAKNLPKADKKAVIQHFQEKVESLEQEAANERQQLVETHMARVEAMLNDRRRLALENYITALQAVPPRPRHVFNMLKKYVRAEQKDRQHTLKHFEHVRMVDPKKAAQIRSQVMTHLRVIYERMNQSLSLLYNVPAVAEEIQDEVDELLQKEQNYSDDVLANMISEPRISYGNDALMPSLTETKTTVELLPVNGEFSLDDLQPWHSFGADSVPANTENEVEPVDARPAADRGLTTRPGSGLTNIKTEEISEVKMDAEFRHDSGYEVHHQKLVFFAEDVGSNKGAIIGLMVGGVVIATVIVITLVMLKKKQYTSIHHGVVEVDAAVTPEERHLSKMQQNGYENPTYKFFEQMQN
Experimental: as §4

[17] = target: T7, BSA-coupled (GP)15 DPR protein peptide; experiment: indirect ELISA, BSA-coupled peptide coated, antibody titrated [also D00015 FIG. 3L]
Experimental: as §1, with “(PR)₁₅: H—C(PR)₁₅-OH. DPR protein peptides were then conjugated via a bifunctional linker (SMCC) to bovine serum albumin (BSA). 96-well microplates” for “(PR)₁₅: H—C(PR)₁₅-OH. 96-well microplates”, “coated with BSA-coupled or -uncoupled dipeptide repeat” for “coated with dipeptide repeat”, “and incubated 1 h” for “and incubated for 1 h”, “Diego, USA).” for “Diego, USA). The binding specificity and EC₅₀ of human-derived antibodies for C9orf72 dipeptide repeat protein peptides (GA)₁₅, (GP)₁₅, (GR)₁₅, (PA)₁₅ and (PR)₁₅ were determined by indirect ELISA.”

(PR)15: H-C(PR)15-OH [18] = target: T3, (PR)15: H-C(PR)15-OH; experiment: indirect ELISA, coated peptide
Experimental: as §1

(GP)15: H-C(GP)15-OH [19] = target: T2, (GP)15: H-C(GP)15-OH; experiment: indirect ELISA, uncoupled peptide coated, antibody titrated [also D00015 FIG. 3L]
Experimental: as §1, with “(PR)₁₅: H—C(PR)₁₅-OH. DPR protein peptides were then conjugated via a bifunctional linker (SMCC) to bovine serum albumin (BSA). 96-well microplates” for “(PR)₁₅: H—C(PR)₁₅-OH. 96-well microplates”, “coated with BSA-coupled or -uncoupled dipeptide repeat” for “coated with dipeptide repeat”, “and incubated 1 h” for “and incubated for 1 h”, “Diego, USA).” for “Diego, USA). The binding specificity and EC₅₀ of human-derived antibodies for C9orf72 dipeptide repeat protein peptides (GA)₁₅, (GP)₁₅, (GR)₁₅, (PA)₁₅ and (PR)₁₅ were determined by indirect ELISA.”

[20] = target: T4, BSA-coupled (PR)15 DPR protein peptide; experiment: Western blot of BSA-coupled peptides
Experimental: as §2, §3

[21] = target: T6, (GA)15: H-CHHHHHH(GA)15-OH; experiment: indirect ELISA, uncoupled peptide coated, antibody titrated [also D00011 FIG. 2L]
Experimental: as §1

B1: NI-308.16C10 (antibody, V domains shown)
VH: EVQLVETGGGVVQPGMSLSLSCAATGFTFSSYGMHWVRQGPGKGPEWVAGIWYDGTNKYYGDSVTGRVTISRDNSKNTLFLQMINVRVEDTAVYYCVKDAERVQKWASYIMDVWGQGTTVTVSS
VL: EIVLTQSPGILSLSRGNRVALSCRASRSVNSSYLNWYQQKPGQAPRLLIYGASKRATGISDRFRGTGSGTDFTLTVARLEPEDIAVYYCQHYGAFGQGTKLEIK
notes: Recombinant complete human IgG1, kappa
In the case of B1, the binding result ((GR)15: H-C(GR)15-OH [1]) is reported as “no binding”, the binding result ((GP)15: H-C(GP)15-OH [2]) is reported as “no binding” and the EC50 ((PR)15: H-C(PR)15-OH [3]) is reported as 3.5 nM. For the same binder, the EC50 [4] was 91.1 nM, the binding result ((PA)15: H-C(PA)15-OH [5]) was “no binding (tested: about 4x10^5 pM (last point))” and the EC50 [6] was 55.1 nM. B1: no binding [7]; no binding [8]; no binding [9].

B2: NI-308.46F8 (antibody, V domains shown)
VH: QVQLVESGGGVVRPGGSLRLSCTASGFTFDEYGMSWVRQVPGKGLEWVSGINWNGATTRYADSVKGRFTISRDNAKNSLYLQMNSLRAEDTALYHCARDGCRNTSCYIWDWFDPWGQGTLVTVSS
VL: CQSVLTQPPSVSAAPGQKVTISCSGSSSNIGNNYVCWYQNLPGTAPKLLIYDDNKRPSGIPDRFSGSKSGTSATLGITGLQTGDEADYYCGTWDSSLSVVVFGGGTKLTVL
For B2, the EC50 ((GR)15: H-C(GR)15-OH [10]) was 40.6 nM, the binding result ((PA)15: H-C(PA)15-OH [11]) was “no binding” and the binding result ((GP)15: H-C(GP)15-OH [2]) was “no binding”. The EC50 ((GR)15: H-C(GR)15-OH [12]) was 90.3 nM, the binding result [13] was “no binding (tested: 10 nM or 100 nM)” and the binding result [14] was “no binding (tested: 10 nM or 100 nM)”. B2: no binding (tested: 20 nM) (transthyrethin); no binding (tested: 20 nM) (Tau); no binding (tested: 20 nM) [15]. B2: no binding (tested: 20 nM) [16].

B3: NI-308.12A3 (antibody, V domains shown)
VH: EVQLVETGGGLVQPGGSLRLSCVGSGFLFSDFEMDWVRQAPGKGLEWISYISGDGNIIYQTDSVKGRFTISRDNAKNSLFLQMDSLTVEDTAVYYCARDARENCGGDCYSTSFDFWGQGTLVTVSS
VL: DIQMTQSPDSLAVSLGERATINCKSSQSLLYTANNRNYLAWYQKKAGQPPKLLIHWASTRASGVPDRFSGSGSGTDFILTISSLQAEDVAVYFCQHYYNSPRTFGQGTKVEIK
notes: as for B1
For B3, the EC50 [17] was 6.1 nM, the binding result ((GR)15: H-C(GR)15-OH [1]) was “no binding” and the binding result ((PR)15: H-C(PR)15-OH [18]) was “no binding”. For the same binder, the binding result ((PA)15: H-C(PA)15-OH [11]) was “no binding”, the EC50 ((GP)15: H-C(GP)15-OH [19]) was 2.2 nM and the binding result [20] was “no binding”. The binding result [8] was “no binding”, the binding result [9] was “no binding” and the EC50 [21] was 19 nM.

Reference: patent US20200010567A1 (NEURIMMUNE, published 2020)
